Laboratory results from the supplement of paper PMC9112550, “Optimization of the antimicrobial peptide Bac7 by deep mutational scanning” (BMC Biology, 2022).

Tested on: Escherichia coli TOP10
Assay: shrunken log2 fold change of peptide-encoding DNA abundance (4.5 h post-induction vs induction); higher = less antimicrobial activity (less host growth inhibition)
Conditions: time post-induction: 4.5 h; library: site-saturation at positions 5, 18, 19, 20
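Note: peptides expressed intracellularly from a pBAD plasmid library in pooled LB shake-flask culture, induced with 0.3% L-arabinose, DNA abundance read by NGS, three biological replicates, DESeq2 with apeglm shrinkage.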

RRIRIRPPRLPRPRPRPEFTPRP
shrunken log2 fold change: -0.1

RRIRIRPPRLPRPRPRPEFVPRP
shrunken log2 fold change: -0.0754

RRIRIRPPRLPRPRPRPEGEPRP
shrunken log2 fold change: 0.134

RRIRIRPPRLPRPRPRPEGVPRP
shrunken log2 fold change: 0.115

RRIRIRPPRLPRPRPRPEHIPRP
shrunken log2 fold change: -0.142

RRIRIRPPRLPRPRPRPEKPPRP
shrunken log2 fold change: -0.0144

RRIRIRPPRLPRPRPRPEKWPRP
shrunken log2 fold change: -0.0117

RRIRIRPPRLPRPRPRPEPLPRP
shrunken log2 fold change: 0.0641

RRIRIRPPRLPRPRPRPEQLPRP
shrunken log2 fold change: -0.148

RRIRIRPPRLPRPRPRPEQSPRP
shrunken log2 fold change: 0.168

RRIRIRPPRLPRPRPRPESDPRP
shrunken log2 fold change: 0.052

RRIRIRPPRLPRPRPRPEVIPRP
shrunken log2 fold change: -0.0583

RRIRIRPPRLPRPRPRPEWGPRP
shrunken log2 fold change: -0.0166

RRIRIRPPRLPRPRPRPFAHPRP
shrunken log2 fold change: -0.241

RRIRIRPPRLPRPRPRPFAVPRP
shrunken log2 fold change: 0.0425

RRIRIRPPRLPRPRPRPFCVPRP
shrunken log2 fold change: -0.713

RRIRIRPPRLPRPRPRPFDCPRP
shrunken log2 fold change: -0.0028

RRIRIRPPRLPRPRPRPFDIPRP
shrunken log2 fold change: -1.02

RRIRIRPPRLPRPRPRPFFCPRP
shrunken log2 fold change: -0.106

RRIRIRPPRLPRPRPRPFFNPRP
shrunken log2 fold change: -0.501

RRIRIRPPRLPRPRPRPFIFPRP
shrunken log2 fold change: -0.696

RRIRIRPPRLPRPRPRPFKQPRP
shrunken log2 fold change: -0.246

RRIRIRPPRLPRPRPRPFKWPRP
shrunken log2 fold change: -0.128

RRIRIRPPRLPRPRPRPFMSPRP
shrunken log2 fold change: -0.308

RRIRIRPPRLPRPRPRPFPAPRP
shrunken log2 fold change: -0.299

RRIRIRPPRLPRPRPRPFPVPRP
shrunken log2 fold change: -0.339

RRIRIRPPRLPRPRPRPFQIPRP
shrunken log2 fold change: 0.0698

RRIRIRPPRLPRPRPRPFRGPRP
shrunken log2 fold change: -0.0233

RRIRIRPPRLPRPRPRPFRMPRP
shrunken log2 fold change: -0.91

RRIRIRPPRLPRPRPRPFRVPRP
shrunken log2 fold change: -0.369

RRIRIRPPRLPRPRPRPFSMPRP
shrunken log2 fold change: -0.0858

RRIRIRPPRLPRPRPRPFVAPRP
shrunken log2 fold change: -0.158

RRIRIRPPRLPRPRPRPFWAPRP
shrunken log2 fold change: -0.0374

RRIRIRPPRLPRPRPRPFWDPRP
shrunken log2 fold change: -0.0885

RRIRIRPPRLPRPRPRPFWTPRP
shrunken log2 fold change: -0.353

RRIRIRPPRLPRPRPRPGACPRP
shrunken log2 fold change: -0.243

RRIRIRPPRLPRPRPRPGAEPRP
shrunken log2 fold change: 0.0273

RRIRIRPPRLPRPRPRPGCIPRP
shrunken log2 fold change: -0.523

RRIRIRPPRLPRPRPRPGCSPRP
shrunken log2 fold change: -0.391

RRIRIRPPRLPRPRPRPGDVPRP
shrunken log2 fold change: -0.227

RRIRIRPPRLPRPRPRPGEIPRP
shrunken log2 fold change: -0.123

RRIRIRPPRLPRPRPRPGEWPRP
shrunken log2 fold change: -0.01

RRIRIRPPRLPRPRPRPGFGPRP
shrunken log2 fold change: 0.28

RRIRIRPPRLPRPRPRPGGQPRP
shrunken log2 fold change: 0.112

RRIRIRPPRLPRPRPRPGHHPRP
shrunken log2 fold change: -0.309

RRIRIRPPRLPRPRPRPGIQPRP
shrunken log2 fold change: -0.0834

RRIRIRPPRLPRPRPRPGIRPRP
shrunken log2 fold change: -0.0416

RRIRIRPPRLPRPRPRPGKEPRP
shrunken log2 fold change: -0.0221

RRIRIRPPRLPRPRPRPGLAPRP
shrunken log2 fold change: 0.201

RRIRIRPPRLPRPRPRPGLIPRP
shrunken log2 fold change: -0.627

RRIRIRPPRLPRPRPRPGLNPRP
shrunken log2 fold change: 1

RRIRIRPPRLPRPRPRPGLRPRP
shrunken log2 fold change: -0.0223

RRIRIRPPRLPRPRPRPGMEPRP
shrunken log2 fold change: -0.375

RRIRIRPPRLPRPRPRPGMMPRP
shrunken log2 fold change: -0.453

RRIRIRPPRLPRPRPRPGNAPRP
shrunken log2 fold change: -0.0762

RRIRIRPPRLPRPRPRPGNGPRP
shrunken log2 fold change: 0.0389

RRIRIRPPRLPRPRPRPGNPPRP
shrunken log2 fold change: -0.366

RRIRIRPPRLPRPRPRPGQNPRP
shrunken log2 fold change: -0.0607

RRIRIRPPRLPRPRPRPGSHPRP
shrunken log2 fold change: 0.141

RRIRIRPPRLPRPRPRPGSIPRP
shrunken log2 fold change: -0.471

RRIRIRPPRLPRPRPRPGSMPRP
shrunken log2 fold change: -0.501

RRIRIRPPRLPRPRPRPGTAPRP
shrunken log2 fold change: -0.0164

RRIRIRPPRLPRPRPRPGTQPRP
shrunken log2 fold change: -0.0235

RRIRIRPPRLPRPRPRPGVEPRP
shrunken log2 fold change: -0.0594

RRIRIRPPRLPRPRPRPGVMPRP
shrunken log2 fold change: -0.346

RRIRIRPPRLPRPRPRPGVPPRP
shrunken log2 fold change: -0.0807

RRIRIRPPRLPRPRPRPGWPPRP
shrunken log2 fold change: 0.353

RRIRIRPPRLPRPRPRPGWYPRP
shrunken log2 fold change: -0.221

RRIRIRPPRLPRPRPRPGYHPRP
shrunken log2 fold change: -0.298

RRIRIRPPRLPRPRPRPGYNPRP
shrunken log2 fold change: -1.28

RRIRIRPPRLPRPRPRPHAHPRP
shrunken log2 fold change: -0.554

RRIRIRPPRLPRPRPRPHCCPRP
shrunken log2 fold change: -0.642

RRIRIRPPRLPRPRPRPHGRPRP
shrunken log2 fold change: -0.0215

RRIRIRPPRLPRPRPRPHHCPRP
shrunken log2 fold change: -0.00699

RRIRIRPPRLPRPRPRPHIIPRP
shrunken log2 fold change: -0.614
